Results as given in US20130280276A1 (Daiichi Sankyo, published 2013).

target: mouse Siglec-15 (mouse); test: cell-based or functional assay

Row | Binder | TRAP activity of mouse osteoclasts formed (RANKL-stimulated mouse bone marrow nonadherent cells) [ng/mL]
1 | MOR09892 (antibody, human IgG2, lambda, V domains shown) VH: QVQLVESGGGLVQPGGSLRLSCAASGFTFSSYAMHWVRQAPGKGLEWVSYISYSGSNTYYADSVKGRFTISRDNSKNTLYLQMNSLRAEDTAVYYCARGWGGFDYWGQGTLVTVSS VL: DIELTQPPSVSVAPGQTARISCSGDNLPNRYVHWYQQKPGQAPVLVIYDDNNRPSGIPERFSGSNSGNTATLTISGTQAEDEADYYCQSRDLHYSPVFGGGTKLTVLG | ≥ 13
2 | MOR09281 (antibody, human IgG2, lambda, V domains shown) VH: QVQLVESGGGLVQPGGSLRLSCAASGFTFSNYWMSWVRQAPGKGLEWVSLISYSGSTTYYADSVKGRFTISRDNSKNTLYLQMNSLRAEDTAVYYCARDTPIGMDFWGQGTLVTVSS VL: DIELTQPPSVSVAPGQIARISCSGDNLGSYYAYWYQQKPGQAPVLVIYGDNDRPSGIPERFSGSNSGNTATLTISGTQAEDEADYYCSSYDIVQPYVFGGGTKLTVLG | ≥ 13

The remaining lines, values ahead:

Row | TRAP activity of mouse osteoclasts formed (RANKL-stimulated mouse bone marrow nonadherent cells) [ng/mL] | Binder
3 | ≥ 13 | MOR09898 (antibody, human IgG2, lambda, V domains shown) VH: QVQLVESGGGLVQPGGSLRLSCAASGFTFSNYWMTWVRQAPGKGLEWVSFISYSGSTTYYADSVKGRFTISRDNSKNTLYLQMNSLRAEDTAVYYCAREGTSSMFDVWGQGTLVTVSS VL: DIELTQPPSVSVAPGQTARISCSGDALRSYYASWYQQKPGQAPVLVIYDDNKRPSGIPERFSGSNSGNTATLTISGTQAEDEADYYCASFTYMSDFVFGGGTKLTVLG
4 | ≥ 13 | MOR10110 (antibody, human IgG2, lambda, V domains shown) VH: QVQLVESGGGLVQPGGSLRLSCAASGFTFTNYAMNWVRQAPGKGLEWVSYISYSSSNTYYADSVKGRFTISRDNSKNTLYLQMNSLRAEDTAVYYCARGAGLGYDVWGQGTLVTVSS VL: DIELTQPPSVSVAPGQTARISCSGDNLRSKYVYWYQQKPGQAPVLVIYDTNDRPSGIPERFSGSNSGNTATLTISGTQAEDEADYYCQTYDMTSQDVFGGGTKLTVLG
